Laboratory results taken from FireProtDB (doi:10.1021/bi801431x).
Several values for one entry are separate records, joined by “and”; a condition that tells them apart may be missing. Equal entries are not always repeated.

B1: Aspartate aminotransferase, P00509 (parent)
chain: MFENITAAPADPILGLADLFRADERPGKINLGIGVYKDETGKTPVLTSVKKAEQYLLENETTKNYLGIDGIPEFGRCTQELLFGKGSALINDKRARTAQTPGGTGALRVAADFLAKNTSVKRVWVSNPSWPNHKSVFNSAGLEVREYAYYDAENHTLDFDALINSLNEAQAGDVVLFHGCCHNPTGIDPTLEQWQTLAQLSVEKGWLPLFDFAYQGFARGLEEDAEGLRAFAAMHKELIVASSYSKNFGLYNERVGACTLVAADSETVDRAFSQMKAAIRANYSNPPAHGASVVATILSNDALRAIWEQELTDMRQRIQRMRQLFVNTLQEKGANRDFSFIIKQNGMFSFSGLTKEQVLRLREEFGVYAVASGRVNVAGMTPDNMAPLCEAIVAVL

Variants of: B1
Settings: Escherichia coli (strain K12); pH 7.5; 25 °C; Urea; Fluorescence; Potassium phosphate 20 mM; reversible: Yes; structure 1AMQ; whole UniProt chain shown

Variant	ddG of mutation (higher = less stable)	denaturant midpoint (higher = more stable)
MFENITAAPADPILGLADLFRADERPGKINLGIGVYKDETGKTPVLTSVKKAEQYLLENETTKNYLGIDGIPEFGRCTQELLFGKGSALINDKRARTAQTPGGTGALRVAADFLAKNTSVKRVWVSNPSWPNHKSVFNSAGLEVREYAYYDAENHTLDFDALINSLNEAQAGDVVLFHGCCHNPTGIDPTLEQWQTLAQLSVEKGWLPLFDFAYQGFARGLEEDAEGLRAFAAMHKELIVASSYSKNFGLYNKRVGACTLVAADSETVDRAFSQMKAAIRANYSNPPAHGASVVATILSNDALRAIWEQELTDMRQRIQRMRQLFVNTLQEKGANRDFSFIIKQNGMFSFSGLTKEQVLRLREEFGVYAVASGRVNVAGMTPDNMAPLCEAIVAVL [E253K]	7.6 kcal/mol and 7.1 kcal/mol	
MFENITAAPADPILGLADLFRADERPGKINLGIGVYKDETGKTPVLTSVKKAEQYLLENETTKNYLGIDGIPEFGRCTQELLFGKGSALINDKRARTAQTPGGTGALRVAADFLAKNTSVKRVWVSNPSWPNHKSVFNSAGLEVREYAYYDAENHTLDFDALINSLNEAQAGDVVLFHGCCHNPTGIDPTLEQWQTLAQLSVEKGWLPLFDFAYQGFARGLEEDAEGLRAFAAMHKELIVASSYSKNFGLYNQRVGACTLVAADSETVDRAFSQMKAAIRANYSNPPAHGASVVATILSNDALRAIWEQELTDMRQRIQRMRQLFVNTLQEKGANRDFSFIIKQNGMFSFSGLTKEQVLRLREEFGVYAVASGRVNVAGMTPDNMAPLCEAIVAVL [E253Q]	6.3 kcal/mol and 5.4 kcal/mol	
MFENITAAPAAPILGLADLFRADERPGKINLGIGVYKDETGKTPVLTSVKKAEQYLLENETTKNYLGIDGIPEFGRCTQELLFGKGSALINDKRARTAQTPGGTGALRVAADFLAKNTSVKRVWVSNPSWPNHKSVFNSAGLEVREYAYYDAENHTLDFDALINSLNEAQAGDVVLFHGCCHNPTGIDPTLEQWQTLAQLSVEKGWLPLFDFAYQGFARGLEEDAEGLRAFAAMHKELIVASSYSKNFGLYNERVGACTLVAADSETVDRAFSQMKAAIRANYSNPPAHGASVVATILSNDALRAIWEQELTDMRQRIQRMRQLFVNTLQEKGANRDFSFIIKQNGMFSFSGLTKEQVLRLREEFGVYAVASGRVNVAGMTPDNMAPLCEAIVAVL [D11A]	5.9 kcal/mol and 5.1 kcal/mol	
MFENITAAPADPILGLADLFRADERPGKINLGIGVYKDETGKTPVLTSVKKAEQYLLENETTMNYLGIDGIPEFGRCTQELLFGKGSALINDKRARTAQTPGGTGALRVAADFLAKNTSVKRVWVSNPSWPNHKSVFNSAGLEVREYAYYDAENHTLDFDALINSLNEAQAGDVVLFHGCCHNPTGIDPTLEQWQTLAQLSVEKGWLPLFDFAYQGFARGLEEDAEGLRAFAAMHKELIVASSYSKNFGLYNERVGACTLVAADSETVDRAFSQMKAAIRANYSNPPAHGASVVATILSNDALRAIWEQELTDMRQRIQRMRQLFVNTLQEKGANRDFSFIIKQNGMFSFSGLTKEQVLRLREEFGVYAVASGRVNVAGMTPDNMAPLCEAIVAVL [K63M]	5.4 kcal/mol and 4.7 kcal/mol	2.71 M and 2.81 M and 4.29 M
MFENITAAPADPILGLADLFRADERPGKINLGIGVYKDETGKTPVLTSVKKAEQYLLENETTENYLGIDGIPEFGRCTQELLFGKGSALINDKRARTAQTPGGTGALRVAADFLAKNTSVKRVWVSNPSWPNHKSVFNSAGLEVREYAYYDAENHTLDFDALINSLNEAQAGDVVLFHGCCHNPTGIDPTLEQWQTLAQLSVEKGWLPLFDFAYQGFARGLEEDAEGLRAFAAMHKELIVASSYSKNFGLYNERVGACTLVAADSETVDRAFSQMKAAIRANYSNPPAHGASVVATILSNDALRAIWEQELTDMRQRIQRMRQLFVNTLQEKGANRDFSFIIKQNGMFSFSGLTKEQVLRLREEFGVYAVASGRVNVAGMTPDNMAPLCEAIVAVL [K63E]	4.5 kcal/mol	2.93 M and 3.9 M and 5.01 M
MFENATAAPADPILGLADLFRADERPGKINLGIGVYKDETGKTPVLTSVKKAEQYLLENETTKNYLGIDGIPEFGRCTQELLFGKGSALINDKRARTAQTPGGTGALRVAADFLAKNTSVKRVWVSNPSWPNHKSVFNSAGLEVREYAYYDAENHTLDFDALINSLNEAQAGDVVLFHGCCHNPTGIDPTLEQWQTLAQLSVEKGWLPLFDFAYQGFARGLEEDAEGLRAFAAMHKELIVASSYSKNFGLYNERVGACTLVAADSETVDRAFSQMKAAIRANYSNPPAHGASVVATILSNDALRAIWEQELTDMRQRIQRMRQLFVNTLQEKGANRDFSFIIKQNGMFSFSGLTKEQVLRLREEFGVYAVASGRVNVAGMTPDNMAPLCEAIVAVL [I5A]	4.9 kcal/mol and 5.1 kcal/mol	2.81 M and 2.74 M and 5.2 M
MFANITAAPADPILGLADLFRADERPGKINLGIGVYKDETGKTPVLTSVKKAEQYLLENETTKNYLGIDGIPEFGRCTQELLFGKGSALINDKRARTAQTPGGTGALRVAADFLAKNTSVKRVWVSNPSWPNHKSVFNSAGLEVREYAYYDAENHTLDFDALINSLNEAQAGDVVLFHGCCHNPTGIDPTLEQWQTLAQLSVEKGWLPLFDFAYQGFARGLEEDAEGLRAFAAMHKELIVASSYSKNFGLYNERVGACTLVAADSETVDRAFSQMKAAIRANYSNPPAHGASVVATILSNDALRAIWEQELTDMRQRIQRMRQLFVNTLQEKGANRDFSFIIKQNGMFSFSGLTKEQVLRLREEFGVYAVASGRVNVAGMTPDNMAPLCEAIVAVL [E3A]	3.8 kcal/mol and 3 kcal/mol	
MFENIAAAPADPILGLADLFRADERPGKINLGIGVYKDETGKTPVLTSVKKAEQYLLENETTKNYLGIDGIPEFGRCTQELLFGKGSALINDKRARTAQTPGGTGALRVAADFLAKNTSVKRVWVSNPSWPNHKSVFNSAGLEVREYAYYDAENHTLDFDALINSLNEAQAGDVVLFHGCCHNPTGIDPTLEQWQTLAQLSVEKGWLPLFDFAYQGFARGLEEDAEGLRAFAAMHKELIVASSYSKNFGLYNERVGACTLVAADSETVDRAFSQMKAAIRANYSNPPAHGASVVATILSNDALRAIWEQELTDMRQRIQRMRQLFVNTLQEKGANRDFSFIIKQNGMFSFSGLTKEQVLRLREEFGVYAVASGRVNVAGMTPDNMAPLCEAIVAVL [T6A]	1.3 kcal/mol	3.62 M and 4.77 M
MFENITAAPADPILGLADLFRADERPGKINLGIGVYKDETGKTPVLTSVKKAEQYLLENETTKNYLGIDGIPEFGRCTQELLFGKGSALINDKRARTAQTPGGTGALRVAADFLAKNTSVKRVWVSNPSWPNHKSVFNSAGLEVREYAYYDAENHTLDFDALINSLNEAQAGDVVLFHGCCHNPTGIDPTLEQWQTLAQLSVEKGWLPLFDFAYQGFARGLEEDAEGLRAFAAMHKELIVASSYSKNFGLYNERVGACTLVAADSETVDRAFSQMKAAIRARYSNPPAHGASVVATILSNDALRAIWEQELTDMRQRIQRMRQLFVNTLQEKGANRDFSFIIKQNGMFSFSGLTKEQVLRLREEFGVYAVASGRVNVAGMTPDNMAPLCEAIVAVL [N282R]	2.6 kcal/mol	3.3 M and 5.17 M
MFENITAAPADPILGLADLFRADERPGKINLGIGVYKDETGKTPVLTSVKKAEQYLLENETTKNYLGIDGIPEFGRCTQELLFGKGSALINDKRARTAQTPGGTGALRVAADFLAKNTSVKRVWVSNPSWPNHKSVFNSAGLEVREYAYYDAENHTLDFDALINSLNEAQAGDVVLFHGCCHNPTGIDPTLEQWQTLAQLSVEKGWLPLFDFAYQGFARGLEEDAEGLRAFAAMHKELIVASSYSKNFGLYNERVGACTLVAADSETVDRAFSQMKAAIRADYSNPPAHGASVVATILSNDALRAIWEQELTDMRQRIQRMRQLFVNTLQEKGANRDFSFIIKQNGMFSFSGLTKEQVLRLREEFGVYAVASGRVNVAGMTPDNMAPLCEAIVAVL [N282D]	-0.8 kcal/mol	4.15 M and 4.9 M and 5.13 M
MFENITAAPADPILGLADLFRADERPGKINLGIGVYKDETGKTPVLTSVKKAEQYLLENETTKNYLGIDGIPEFGRCTQELLFGKGSALINDKRARTAQTPGGTGALRVAADFLAKNTSVKRVWVSNPSWPNHKSVFNSAGLEVREYAYYDAENHTLDFDALINSLNEAQAGDVVLFHGCCHNPTGIDPTLEQWQTLAQLSVEKGWLPLFDFAYQGFARGLEEDAEGLRAFAAMHKELIVASSYSKNFGLYNEKVGACTLVAADSETVDRAFSQMKAAIRANYSNPPAHGASVVATILSNDALRAIWEQELTDMRQRIQRMRQLFVNTLQEKGANRDFSFIIKQNGMFSFSGLTKEQVLRLREEFGVYAVASGRVNVAGMTPDNMAPLCEAIVAVL [R254K]	7.6 kcal/mol and 5 kcal/mol	
MFENITAAPADPILGLADLFRADERPGKINLGIGVYKDETGKTPVLTSVKKAEQYLLENETTKNYLGIDGIPEFGRCTQELLFGKGSALINDKRARTAQTPGGTGALRVAADFLAKNTSVKRVWVSNPSWPNHKSVFNSAGLEVREYAYYDAENHTLDFDALINSLNEAQAGDVVLFHGCCHNPTGIDPTLEQWQTLAQLSVEKGWLPLFDFAYQGFARGLEEDAEGLRAFAAMHKELIVASSYSKNFGLYNEMVGACTLVAADSETVDRAFSQMKAAIRANYSNPPAHGASVVATILSNDALRAIWEQELTDMRQRIQRMRQLFVNTLQEKGANRDFSFIIKQNGMFSFSGLTKEQVLRLREEFGVYAVASGRVNVAGMTPDNMAPLCEAIVAVL [R254M]	3.8 kcal/mol and 3.4 kcal/mol	3.06 M and 3.12 M and 5.19 M
MFENITAAPADPILGLADLFRADERPGKINLGIGVYKDETGKTPVLTSVKKAEQYLLENETTMNYLGIDGIPEFGRCTQELLFGKGSALINDKRARTAQTPGGTGALRVAADFLAKNTSVKRVWVSNPSWPNHKSVFNSAGLEVREYAYYDAENHTLDFDALINSLNEAQAGDVVLFHGCCHNPTGIDPTLEQWQTLAQLSVEKGWLPLFDFAYQGFARGLEEDAEGLRAFAAMHKELIVASSYSKNFGLYNQRVGACTLVAADSETVDRAFSQMKAAIRANYSNPPAHGASVVATILSNDALRAIWEQELTDMRQRIQRMRQLFVNTLQEKGANRDFSFIIKQNGMFSFSGLTKEQVLRLREEFGVYAVASGRVNVAGMTPDNMAPLCEAIVAVL [K63M E253Q]	5.3 kcal/mol and 4.6 kcal/mol	
MAENITAAPADPILGLADLFRADERPGKINLGIGVYKDETGKTPVLTSVKKAEQYLLENETTKNYLGIDGIPEFGRCTQELLFGKGSALINDKRARTAQTPGGTGALRVAADFLAKNTSVKRVWVSNPSWPNHKSVFNSAGLEVREYAYYDAENHTLDFDALINSLNEAQAGDVVLFHGCCHNPTGIDPTLEQWQTLAQLSVEKGWLPLFDFAYQGFARGLEEDAEGLRAFAAMHKELIVASSYSKNFGLYNERVGACTLVAADSETVDRAFSQMKAAIRANYSNPPAHGASVVATILSNDALRAIWEQELTDMRQRIQRMRQLFVNTLQEKGANRDFSFIIKQNGMFSFSGLTKEQVLRLREEFGVYAVASGRVNVAGMTPDNMAPLCEAIVAVL [F2A]	7.3 kcal/mol and 7.4 kcal/mol	2.28 M and 4.26 M and 5.09 M
MFENITAAPADPILGLADLFRADERPGKINLGIGVYKDETGKTPVLTSVKKAEQYLLENETTKNYLGIDGIPEFGRCTQELLFGKGSALINDKRARTAQTPGGTGALRVAADFLAKNTSVKRVWVSNPSWPNHKSVFNSAGLEVREYAYYDAENHTLDFDALINSLNEAQAGDVVLFHGCCHNPTGIDPTLEQWQTLAQLSVEKGWLPLFDFAYQGFARGLEEDAEGLRAFAAMHKELIVASSYSKNFGLYNERVGACTLVAADSETVDRAFSQMKAAIRANYSRPPAHGASVVATILSNDALRAIWEQELTDMRQRIQRMRQLFVNTLQEKGANRDFSFIIKQNGMFSFSGLTKEQVLRLREEFGVYAVASGRVNVAGMTPDNMAPLCEAIVAVL [N285R]	4.4 kcal/mol and 5.9 kcal/mol	2.91 M and 2.66 M and 4.24 M
MFENITAAPADPILGLADLFRADERPGKINLGIGVYKDETGKTPVLTSVKKAEQYLLENETTENYLGIDGIPEFGRCTQELLFGKGSALINDKRARTAQTPGGTGALRVAADFLAKNTSVKRVWVSNPSWPNHKSVFNSAGLEVREYAYYDAENHTLDFDALINSLNEAQAGDVVLFHGCCHNPTGIDPTLEQWQTLAQLSVEKGWLPLFDFAYQGFARGLEEDAEGLRAFAAMHKELIVASSYSKNFGLYNKRVGACTLVAADSETVDRAFSQMKAAIRANYSNPPAHGASVVATILSNDALRAIWEQELTDMRQRIQRMRQLFVNTLQEKGANRDFSFIIKQNGMFSFSGLTKEQVLRLREEFGVYAVASGRVNVAGMTPDNMAPLCEAIVAVL [K63E E253K]	6.7 kcal/mol and 6.5 kcal/mol	
